Target: T1, human GDF15 receptor (GFRAL) stably over-expressed on SK-N-AS cells (human, UniProt Q6UXV0 19-394)
T1 sequence (looked up): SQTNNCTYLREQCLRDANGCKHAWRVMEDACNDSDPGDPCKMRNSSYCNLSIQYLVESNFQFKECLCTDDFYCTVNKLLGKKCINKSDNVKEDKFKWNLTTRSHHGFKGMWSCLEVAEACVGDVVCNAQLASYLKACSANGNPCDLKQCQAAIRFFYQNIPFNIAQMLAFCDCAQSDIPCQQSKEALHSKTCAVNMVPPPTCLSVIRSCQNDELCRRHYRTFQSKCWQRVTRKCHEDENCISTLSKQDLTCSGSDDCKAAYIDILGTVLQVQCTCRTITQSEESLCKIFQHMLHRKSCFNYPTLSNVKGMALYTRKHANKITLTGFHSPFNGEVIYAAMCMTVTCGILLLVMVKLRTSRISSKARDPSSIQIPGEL
Experiment: cell-based or functional assay

EC50, cell-based pAKT (phospho-AKT Ser473) assay: 0.153 nM
B1: Native GDF15 (ligand, UniProt Q99988 197-308, looked up)
chain: ARNGDHCPLGPGRCCRLHTVRASLEDLGWADWVLSPREVQVTMCIGACPSQFRAANMHAQIKTSLHRLKPDTVPAPCCVPASYNPMVLIQKTDTGVSLQTYDDLLAKDCHCI

Reference: patent publication US20220315633A1 (Janssen / Centocor, published 2022)
